These results are taken from a protein production outcome set (Wang et al. 2014).

The data set can be described thus: label from the status in PepcDB records.
For the sequence “MGVSEISRSEEKSGIGFVKLFENNVVFPGFLVWMNQTIQEPLKAEFKRLRNVKELSLKSVSKIETAYEEHRDEEKLEKQLQAWRDNPSWIDQPPKVVVKSQNGLFCHLNIEADVGLPPELVYNIFTHPDNKRYFKNIKENISRKVLIDEGPKQTVEVKQAAAWKFLWWDGTCPIHLIVEENRKNLTSKYKQETTMFMKVFEGCWKVEPLFIDEHLCDRSKPKSQKDYHSCSNGRGRIGSKVTMDQMFQPSALLTPPPLSWYIRGITIKTTESMIEDLFAEATRLRGGKGGGYIDDQGENNVVTEKSKADDIKERWRSHRRSKRRRFTTARSM”, the protein production entry was “failed”.

“MGVSPQVARWFDCDLRSVVDHGVDRLRFTWKLGDPVEAELPSEEPFWMVRRDRFDHFLVEQAANLGARIEDGAAVTAVSAEGDGWLVTVGDRAYRSRTLIAADGARGPLAQWLGFPSQKRRYAQACELDVPLPARPDSTAHFEFGLVRNGYIWVFPKSDGYSIGIGTFRGNDATDFRGLLETYLAGFGVSADLDRIVPHPLCVWDGSQPLHRGSALLVGEAASLTDPFTAEGIRPALLSGMRAAEAIDRAIAGDRNALAGYSRTIQQEWGDSMAWAKRISSVFYRVPNLGYQIGIKRPTAPQRMAQILVGELDYSDIATRVIRRLTTGFLPGMRLEHHHHHH”: the protein production entry is recorded as “failed”.

Consider “MGVVLARGAFRERSMLTLPDFPLPDARGRFGPYGGRYVPETLIPALEELEAAYREAKKDPAFLEELDHYLRQFAGRPTPLYHAKRLSEYWGGAQVFLKREDLLHTGAHKINNTLGQALLARRMGKRRVIAETGAGQHGVSVATVAALFGLECVVYMGEEDVRRQALNVFRMKLLGAEVRPVAAGSRTLKDATNEAIRDWITNVRTTFYILGSVVGPHPYPMMVRDFQSVIGEEVKRQSLELFGRLPDALIAAVGGGSNAIGLFAPFAYLPEGRPKLIGVEAAGEGLSTGRHAASIGAGKRGVLHGSYMYLLYDHDGQITPAHSVSAGLDYPGVGPEHSYYADAGVAEYASVTDEEALEGFKLLARLEGIIPALESAHAIAYAAKVVPEMDKDQVVVINLSGRGDKDVTEVMRLLGGEL”, for which the protein production entry is on record as “not failed”.

Take “MGWHFQQSVTMPSEWRTLALESDDSYNDFTVIMRRKLQENQVNVVNLEQNIPILRINKQITSDQVASIFKHGREAEKLLMLEVEATFRLANGESYPINAKVNRTFFDNARAALAKSEEREVIWNDMREQVARQLIVKIIALQNQIKRKLEHHHHHH”: the protein production entry is given as “not failed”.

Turning to “MGYCIIIPAYNAARTLPAVVREVLGLGMPCLVVDDGSTDGTSATVEGLGVHLLRHDGNRGKGAALRTGFEWALAHGYSGVVTLDADGQHDPTAIPLLAATARERNVDILIASRDTQFREMAGLRSVWNRFGVWCMRKRTGFTITDSQSGFRWYSARLLKGVSLEASGYHLEMEILMKAWRGGFAIDSLPVAARVADGRATSHFRPVRDTWNICMTFLRHMLEHHHHHH”, the protein production result is recorded as “not failed”.

As to “MGYEGIIVVDVRDAEAYKECHIPTAISIPGNKINEDTTKRLSKEKVIITYCWGPACNGATKAAAKFAQLGFRVKELIGGIEYWRKENGEVEGTLGAKADLFWNMKKESLEHHHHHH”, the protein production entry is “failed”.

“MGYLKNHWWKRWIRRRGCKLAGGPASVGKRTTLVLEERVELGHLRIVPPRLEIGAYSYVRSGTDLSLVASIGRFCSIGSDCFIGQEKHTHPSDWVSSHPFQHTGTALRYEPALSYAEIGHDVWIGHSAMVMEGVKVGTGAIIATRAVVTRDVPPYAIVAGTPAQVIRYRHPPEIIEGLLASRWWELDSAFLTGLPLDR”: the protein production entry is “failed”.

For “MGYQLSATLKGHDQDVRDVVAVDDSKVASVSRDGTVRLWSKDDQWLGTVVYTGQGFLNSVCYDSEKELLLFGGKDTMINGVPLFATSGEDPLYTLIGHQGNVCSLSFQDGVVISGSWDKTAKVWKEGSLVYNLQAHNASVWDAKVVSFSENKFLTASADKTIKLWQNDKVIKTFSGIHNDVVRHLAVVDDGHFISCSNDGLIKLVDMHTGDVLRTYEGHESFVYCIKLLPNGDIVSCGEDRTVRIWSKENGSLKQVITLPAISIWSVDCMSNGDIIVGSSDNLVRIFSQEKSRWASEDEINELSTQVEKSTISSKTIEFDESKLSPYEILQSPGRKEGQIVVVKSPQGTIEAHQFSNSSWKKVGDVVGAGATGNDKKIEFEGKTYDYVFDVDIEDGKPPLKLPINVSDNPYTAADNFLARYELPMSYRDQVVQFILKNTNGISLDQPNDNASSSAVSPSKTSVMKVLPVKQYLIMENYNPDTIFNGIVKINSNEKTFDDEILAQIGGALHDIDESWELLLSFANTIRSNWEIKTPAYDIVRLIVKKLPYSSDIKDYIEEGLGNKNITLTMLTVRILVNCFNNENWGVKLLESNQVYKSIFETIDTEFSQASAKQSQNLAIAVSTLIFNYSALVTKGNSDLELLPIVADAINTKYGPLEEYQECEEAAYRLTVAYGNLATVEPTLRQFANSVTWLANIKRSYGNVPRFKDIFDDLS”, the protein production entry is recorded as “failed”.

Regarding “MHCALLYSGGKDSTLAALLLDPFYDVTLVSGSFGVRDTDPAQESATAVGFDHVTVDLDPDVAHDAVKQMFDDGYPRNGIQRVHEHAVETVARADWVADADGLGTLDAVADGTRRDDRVPTVDRPLAQSIEDRFDVDYLAPLAGIGRGAIDAMAADRLVVESGPSAEIPKADYEVELRALLRKRYGEGAVADVFPEHTQSRVQGLR”, the protein production entry is recorded as “failed”.

“MHELIRDITLCILFAWMLGLLAHFSRQPLILAYLIAGFCIGPFGAGWVKSQESISVISELGLIFMLFMIGLEIDLKKIVRAGKVILFAAGGQLPGGCLLGVLFFAGIGLSLGGGHFDAVYLCIACALSSTVIIVKVLYEKRELDTLPGRITLGVLVLQDIFAILFLAVQPSLANLQVSVILLSIGRVAVLVAAALLVSRYVLPRLFHQIARRPELILLGALAWCFLVAETAERLSLSREMGALIAGVSLSTFPYALDVTAKVTTLRDFFITLFFVALGMTIPVPGLSVIGLALMIAAFTVVSRLVTTFTPLYLMKQGLRASLLPALNLAQISEFSLVVIQTGVTDNHIAAETANAASFAFVVLAVLSTFVMTRSDEIARWAIGPLKRIGLRDLDHGNGHAEEGHEGGHGEARRIVILGFFRAASALLAEIERQAPVLLEQITVVDFNPNVYQTLLSRGLHVIYGDISSADTLLHAGVGKSEMIILSVPDALLKGASNEKLVRHVRTLNPTAMIVATADLLSDVGELYEAGASYVTVTRLSDAHELFTVIEAAQAGLLADKRAELDLRLGERREVLP”: the protein production result is “failed”.

On to “MHESRLLLVMHWTEILAVFSFAVSGLAEARRRRLDAVGAFIVAFLTAFGGGTLRDLLLDRRPFYWVEHEQYLLALFVMSLFANRVIRLVSQLVSDRVLIVADAVGLGLFGVLGTQLALDAGVPVFVSVMMGVITAAFGGLLRDVVCNEIPMLLRDNRPYATCAFLGCWLYVGLTHTSLQPSVAVVVATLAIVAGRLATLRWNITLPR”, for which the protein production result is “failed”.

For “MHHLILGYGYCGYYLAQELLGHHQQVTVVSRQLKKELELSKLQHISHDLEYPFHWSEPDSIIYYLIPPPSQGTCDTFLQQFLNQSSLNAKKIIYFGSSGVYGNHQGAWVDELSACIIDSPRQQRRLDAEQQWLAYCQQHNKELSLLRIAGIYGPNRIPADAAKSKIPIIKPTEAPFTNHIFVKDLALIAYLLGQKQTTSAVYNVADGNPTHMGELQQTVANALGIESASYESFEQAWEKASPMKREFMRASKRLKIDLLKTALGEDIQFTSLYDAVKQSL”, the protein production entry was “failed”.

Consider “MHHQSVLHSGYFHPLLRSWQTAASTVSASNLIYPIFVTDVPDDVQPIASLPGVARYGVNQLEEMLRPLVEAGLRCVLIFGVPSRVPKDEQGSAADSEDSPTIEAVRLLRKTFPSLLVACDVCLCPYTSHGHCGLLSENGAFLSEESRQRLAEVALAYAKAGCQVVAPSDMMDGRVEAIKAALLKHGLGNRVSVMSYSAKFASCFYGPFRDAAQSSPAFGDRRCYQLPPGARGLALRAVARDIQEGADMLMVKPGLPYLDMVREVKDKHPELPLAVYQVSGEFAMLWHGAQAGAFDLRTAVLETMTAFRRAGADIIITYFAPQLLKWLKEE”, for which the protein production entry is given as “failed”.

Consider “MHHWVQASSSDFSGTPPQARSGHTAVNVGKSMVVVFGGLVDKKFLSDIIVYDIENKLWFEPECTGSESEGQVGPTPRAFHVAITIDCHMFIFGGRSGGKRLGDFWVLDTDIWQWSELTSFGDLPTPRDFAAAAAIGSQKIVLCGGWDGKKWLSDVYVMDTMSLEWLELSVSGSLPPPRCGHTATMVEKRLLVFGGRGGGGPIMGDLWALKGLIDEERETPGWTQLKLPGQAPSSRCGHTVTSGGHYLLLFGGHGTGGWLSRYDVYYNDTIILDRVTAQWKRLPIGNEPPPPRAYHTMTCIGARHLLIGGFDGKLTFGDLWWLVPEDDPIAKRSSVPQVVNPPEIKESERELDKERGQDGFSIVDLQQKMGISVSSGLRLQIPEESEDQEFVELGTRLIEGDVVDERASMIQMAAQALRQHWKQSTPRTLQLKELGSLLRDYQRLVTRIFTTQSSLTSADFGLPGTKTFTFYHIKSSSELRINDISKLLEEYKTLVI”, for which the protein production result was “not failed”.

Consider “MHIKIDDLTGRQVVSLVNEHLHSMTLMSPPESIHALGLEKLRGPEITFWSAWEGDELAGCGALKELDTRHGEIKSMRTSASHLRKGVAKQVLQHIIEEAEKRGYERLSLETGSMASFEPARKLYESFGFQYCEPFADYGEDPNSVFMTKKLLEHHHHHH”, for which the protein production result was “not failed”.

For “MHIPDGIIPLWQCAVYWAVALINIGIFFYIFSKKPQKERRIVGTGLFAAAAAAVSSISVPSPFGVPVHFFLIPLAAILLGPLTAVIVATLCLVIQFFILGMGGLTSMGANILTMGIGLGVGTYAVYSVVSELDRSLAVFTATFFGIMVATVFHIMILLAAGVAGPEMLMATLIPFYIFVGVIEGAANIFIVSFLERMKPELTMMERV”, the protein production entry is reported as “failed”.

For the sequence “MHKEENMSDLYLKLVNTPVGKTAAQSLGLPSPAPLKRLKRVDQPFIEGDVLIGAGNGARAIATLGSIVGASPATLHHATGPETLAESAKTSNKAQALDITGEVSGKFSALIFDASGLQKPDELRALYDFFHPTIRKLATNGRVLVIGQDPHTCRKAPQAAAQQALEGFVRAVGKEIGKKGATANLVWIAPNAENQLDSSVRFFLSPRSAYVSGQVVRIGKADEAKATNPVAPLAGKVALVTGASRGIGAAIAETLARDGATVIGLDIPPALEELQKVTGALKGKALACDITDEKAPKLIADFIEKETGGVDFVIHNAGITRDKTLGNMPEHFWDMTIAVNLTAEELIDEELAERKLMRENGRIVCISSISGIAGNFGQTNYSCAKSGVIGYVEAMARHLKNGITINAIAPGFIETQMTAAMPFTIREAGRRMNSLSQGGQPVDVAEAIAWYCNPASAGVNGNVVRVCGQSLIGK”, the protein production entry is “failed”.

Regarding “MHLFIEGEIEHLVFPGLKSYIVPVWDLRTYQIFDMALRVHKNIQQRDMVIGRNLGNWILRGLDRMKPSAQVLLPKNTEPSIDKAKRVLQSTRLKPHVNTQTPQNREVDRNLFMSLRNFRSKYPIASMMMIKPPRSTGTTTQYRPYSVGESSLIKPIYARGGFNSVIRKDILQWMVQKR”, the protein production entry was “failed”.

On to “MHLYDKRPGGGASFSQILGQAKNRQGIFFNTTFAVMGHVAKASGRVTETDIRIATLLMDQMRLTGDARKEAQQAFREGKEPDFDLCSSLQAFRAVTQGRQELVQMFIEIQIQTALSDGELDAAEHAILMTVAQELGYGRLEHHHHHH”, for which the protein production entry was “failed”.

Consider “MHMQVIQLHHPYEPNQIPNEEVVMVLGFFDGVHKGHQKVIETGKKIAEEKGLKLAVMTFNQHPSIVFQKVLPENMKYLTSLEQKERLMANLGVDILYIVEFTSAFAQLKPQDFVDQYIVNLNSAVAVSGFDYTYGPKEIAGVKQLPTYAQGRFEVVTVPKEEMTGAKISSTRIREKMEAGEMEEVTELLGYIYETEGTVVHGDARGRLLGFPTANVKVKSTVRLPRIGVYAVQIEVGGKWYVGMGSIGHNDTFGEGRDLTVEVYILDFHQDIYGEQVVVRWNHYLRDQVKFNGAEALIDQLKQDERDTADYFQQSEDK”, for which the protein production entry is listed as “failed”.
